Source: IntAct's records for PubMed 24802387

B1: Relaxin-3 (Homo sapiens), Q8WXF3 (parent)
chain: MARYMLLLLLAVWVLTGELWPGAEARAAPYGVRLCGREFIRAVIFTCGGSRWRRSDILAHEAMGDTFPDADADEDSLAGELDEAMGSSEWLALTKSPQAFYRGRPSWQGTPGVLRGSRDVLAGLSSSCCKWGCSKSEISSLC

Variants of: B1
Conditions: with rl3r2_human RXFP4, Q8TDU9
rl3r2_human RXFP4, Q8TDU9, sequence (Q8TDU9 whole entry): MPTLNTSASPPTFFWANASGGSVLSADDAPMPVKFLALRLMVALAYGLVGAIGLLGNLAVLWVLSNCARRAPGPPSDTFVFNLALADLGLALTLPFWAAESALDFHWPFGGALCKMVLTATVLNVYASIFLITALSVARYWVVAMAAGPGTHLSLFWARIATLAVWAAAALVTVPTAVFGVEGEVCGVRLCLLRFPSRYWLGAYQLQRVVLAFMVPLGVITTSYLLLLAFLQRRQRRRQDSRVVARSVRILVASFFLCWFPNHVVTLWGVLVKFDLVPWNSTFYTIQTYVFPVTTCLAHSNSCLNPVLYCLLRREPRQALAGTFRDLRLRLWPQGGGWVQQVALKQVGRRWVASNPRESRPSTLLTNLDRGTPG

Variant	effect of a mutation on the interaction
MARYMLLLLLAVWVLTGELWPGAEARAAPYGVRLCGREFIEAVIFTCGGSRWRRSDILAHEAMGDTFPDADADEDSLAGELDEAMGSSEWLALTKSPQAFYRGRPSWQGTPGVLRGSRDVLAGLSSSCCKWGCSKSEISSLC	decreasing interaction

Variants of: B1
Conditions: with rl3r2_human RXFP4, Q8TDU9
Remark: another data set of the same source

Variant	effect of a mutation on the interaction
MARYMLLLLLAVWVLTGELWPGAEARAAPYGVRLCGREFIEAVIFTCGGSRWRRSDILAHEAMGDTFPDADADEDSLAGELDEAMGSSEWLALTKSPQAFYRGRPSWQGTPGVLRGSRDVLAGLSSSCCKWGCSKSEISSLC	increasing interaction

Variants of: B1
Conditions: with rl3r2_human RXFP4, Q8TDU9
Remark: another data set of the same source

Variant	effect of a mutation on the interaction
MARYMLLLLLAVWVLTGELWPGAEARAAPYGVRLCGEEFIRAVIFTCGGSRWRRSDILAHEAMGDTFPDADADEDSLAGELDEAMGSSEWLALTKSPQAFYRGRPSWQGTPGVLRGSRDVLAGLSSSCCKWGCSKSEISSLC	decreasing interaction

Variants of: B1
Conditions: with rl3r2_human RXFP4, Q8TDU9
Remark: another data set of the same source

Variant	effect of a mutation on the interaction
MARYMLLLLLAVWVLTGELWPGAEARAAPYGVRLCGEEFIRAVIFTCGGSRWRRSDILAHEAMGDTFPDADADEDSLAGELDEAMGSSEWLALTKSPQAFYRGRPSWQGTPGVLRGSRDVLAGLSSSCCKWGCSKSEISSLC	increasing interaction

Variants of: B1
Conditions: with rl3r2_human RXFP4, Q8TDU9
Remark: another data set of the same source

Variant	effect of a mutation on the interaction
MARYMLLLLLAVWVLTGELWPGAEARAAPYGVRLCGREFIRAVIFTCGGSEWRRSDILAHEAMGDTFPDADADEDSLAGELDEAMGSSEWLALTKSPQAFYRGRPSWQGTPGVLRGSRDVLAGLSSSCCKWGCSKSEISSLC	decreasing interaction

Variants of: B1
Conditions: with rl3r2_human RXFP4, Q8TDU9
Remark: another data set of the same source

Variant	effect of a mutation on the interaction
MARYMLLLLLAVWVLTGELWPGAEARAAPYGVRLCGREFIRAVIFTCGGSEWRRSDILAHEAMGDTFPDADADEDSLAGELDEAMGSSEWLALTKSPQAFYRGRPSWQGTPGVLRGSRDVLAGLSSSCCKWGCSKSEISSLC	increasing interaction
